Measurements published in PMC3447759.

What was measured:
[1] = target: GAGE12I (Lumier fusion, HEK293) (human); assay: pull-down; Lumier (luminescence-based mammalian interactome mapping): protein A and Renilla luciferase fusions co-expressed in HEK293, lysed in 20 mM Tris-HCl pH 7.5, 250 mM NaCl, 1% Triton X-100, 10 mM EDTA, 10 mM DTT with Benzonase; protein A fusions isolated on IgG-coated magnetic beads …; luciferase bound/input normalised to a protein A dimer control and given as Z scores; both orientations
GAGE12I = assay: EMSA; conditions: EMSA: 20 mM Tris pH 7.4, 50 mM NaCl, 1 mM DTT, 5 min or as indicated, 20 C, 1 pg/ul DNA. Calf thymus DNA-cellulose pull-downs (P1, P2; undefined DNA, not …)

Chain of GAGE12I (Lumier fusion, HEK293) (human) (A1L429 whole entry, the tested form may be a part): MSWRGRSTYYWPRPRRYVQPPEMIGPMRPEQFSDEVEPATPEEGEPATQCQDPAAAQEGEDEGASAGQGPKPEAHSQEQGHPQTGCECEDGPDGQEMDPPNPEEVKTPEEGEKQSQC

## full-length GCL (Lumier fusion, HEK293) (from UniProt Q96IK5 1-515) (natural protein)
[1]
  Z score: 3.4 to 5.3

## pUC19 90-bp EcoRI-PvuII fragment
GAGE12I
  K half: < 7.3 µM
